# Assay: label from the status in PepcDB records
row,Sequence,protein production
1,MKNEGKKGTEQAKKPEKTKITENEINGNESGKQSFEVDRRSVYRCVQCGTCRSVCPVFDVVGWESANTRGRMLIIKSLLEGRPPSEDMLPSLASCTTCGICAVKCPAGVKPPKVVEAARAQLVKCGITTEAQKNLKSTIMTYGNSFGETRDRKHWLSEVERSQLPEKSDYVYFVGCFDSYRYPEFAKKTFGILQQFGVTLLPDEQCCASPLLRTGFKEDAEKVMKHNLEQIRKVGAHTIITSCAGCYTTLKNNYPEELKVISLPEFLVEHLEELNLKKLDLTVTYHDPCHLGRHNKVYDAPRKVIQAICTLKEMKYIKENARCCGGGGGVRTGYPDISLELARNRLKDVPEGVDYIVTSCPLCVRNLRDAGGDIEVIDIVELVAMAME,failed
2,MKNEVFFGEGMKVVAAAYPDLYDIIVKLNDTVFTGKTLDYKTQKLIAIGIVASRCDEVAIEKQMKSAMKELGITKEEIADVLRVVLLTSGMPAFTKAMKILEKL,not failed
3,MKNFLMKKIIYSGVLSIHFILAFVVNSVGAAQLKKSSTLSMNVLFITIDDLNNDLGAYGHHLVKSPNIDALAKKGIRFDKAYSQSPMCTPSRSSFMTGLYPDQTGIIAHGSHTQMTAHFREHIPKVTTLPQLFKNNGYFSGRVGKIYHQGVPNQIGTSGADDAASWHETVNPIGLDKDVEDKIIAFNEKALVRQSFGGVLSFLAIGDDDKAHTDGKVATETINMIKDHHPDKTGKPFFIGAGFYRPHTPFVAPKKYFDLYPLEKIKPYIAPKNDRKDIPDIALQDREGQVGLTLNQRKQIIQGYYAAVSYVDAQVGRVLDALKQQDLSDNTIVVFLSDHGYELGQHGLWQKGSLFEGSARAPLIIYAPNVKDNGRVVTSPVELVDIYPTLAKLTGLVAPEYLAGKDLTPALNDVDFQVRKGAYSAILNRNKGDNNQFAFTKIRGHSIRTNRYRYTEWGEGYFGAELYDHKNDPQELKNLADKVSLESVRIKMKWLLNDAMDDAQKRIKSIE,failed
4,MKNIEKLEQSLTYEFKDKNLLIHALTHKSFKKSYNNERLEFLGDAVLDLVVGEYLFHKFAKDAEGDLSKLRAALVNEKSFAKIANSLNLGDFILMSVAEENNGGKEKPSILSDALEAIIGAIHLEAGFEFAKTIALRLIEKNFPQIDAKILIKDYKTKLQEITQGKIGQTPQYETVRAFGPDHLKQFEIALMLDGKELARAIAGSKKEAQQMAAKIALEKLGAL,not failed
5,MKNILKVFNTTILALIIIIATFSNSANAADSGTLNYEVYKYNTNDTSIANDYFNKPAKYIKKNGKLYVQITVNHSHWITGMSIEGHKENIISKNTAKDERTSEFEVSKLNGKIDGKIDVYIDEKVNGKPFKYDHHYNITYKFNGPTDVAGANAP,not failed
6,MKNKKYLQFGGIAAVILIVLFLVSLFSSDTRNFQEVDTSVAMAQLDAGNVAEAQIDDREQRVRLTLREPITVDEREGVEEILAQYPARTAPAIFEKVEASNTDSYTTNVTQESFLMSMLSFILPMVIIFGLLMFFLTRMQGGGMFGIGGSKAKQLTKDMPTNTFADVAGAEEAVDELHEIKDFLEDPTRYEALGAKIPRGVLLYGPPGTGKTLLARAVAGEAGVPFYSISGSDFVEMFVGVGASRVRDLFKQAKENSPCIIFVDEIDAVGRARGSGMGGGHDEREQTLNQLLVEMDGFGDRQGVILMAATNRPDVLDPALLRPGRFDRQIPVTNPDLRGREQILEVHAKGKPFAPDADIKALAKRTAGMSGADLANVLNEAALLTARVGGNVITADALEEATDRVVGGPRRSGKVISEKEKKVTAYHEGGHTLSAWALEDIERVYKVTILARGRTGGHAMTAQEDDKGMYNRNELFARLVFAMGGRSAEELVFGEPTTGASADIEMATKIARSMVTEYGMSPAVGMVKYGQEQGDPFSGRGGGGNLDHSQEVAATIDTEVQFLLDKAHEVSYSILAEYRDHLDRLAEKLLEKETLRRPDLEALFDDIVPRKVAEVFPDESTRFPRQENREPVKTPVELALERGEEPPKKFSILEASRATRERRRKELEAQGKLPVQPASSAGVAPAAGAAAGSYGTPPPADWSVPGSAGKHRSRAEEQPAEQGFPAQTPAQAPEQSPDSSGGRPNPYATPTASGEHPGMKAYGFGDSELMDQSTGAEHTPGNVSQESPTEMIGFRLPDHERSDYPEKAQKESVLDASETTEMPVVPDQPIDGDSGKSAEGTQENPENEGDNRG,failed
7,MKNLVVVDHPLIKHKLTIMRDKNTGPKEFRELLREITLLLAYEATRHLKCEEVEVETPITKTIGYRINDKDIVVVPILRAGLVMADGILELLPNASVGHIGIYRDPETLQAVEYYAKLPPLNDDKEVFLLDPMLATGVSSIKAIEILKENGAKKITLVALIAAPEGVEAVEKKYEDVKIYVAALDERLNDHGYIIPGLGDAGDRLFRTK,not failed
8,MKNPQSKADDILQCARTLIIRGGYNSFSYADISQVVGIRNASIHHHFPSKSDLVCKLVSQYRQEAEAGIAELEKNISDPLEQLRAYIGYWEGCIADATHPFCVCALLASEIPVLPETVVLEVRAHFRSLSDWLTAVLERGIAQGRLVLTGTARANAEIFMATVHGAMLSARAHGDAATFGAITRPMLERITA,not failed
9,MKNRIWSAAMAAGLLVAAATSAQAEPVMQGRDAYGDWQSDRPGTVRLIRPQDLVKPGATRSVASFARVVPRPSDASPQVPPGFKIELFAEGLRAPRIVRVAPNGDVFVAETRAGTIRVLRAGEGGKVAANEVFASGLRQPFGVAFFPNGDNPQWVYVANTDSVVRFPYQAGDLKARSKAEKIVASLPHDGGHSTRDIVFTPDNKRMLVSVGSLSNVAEGMGTPPGGMDAWSKTQPLGAAWASETERATVLAFTPDGKERKIYATGIRNCVGLAIQSQTGLPWCSTNERDGLGDDLVPDYVTSVKEGAFYGWPWFYIGGNEDPRHAGARPDLKDRVTIPDVLIQPHSASLGMTFYEGTQFPSDYQGDAFAAEHGSWNRSKRTGYKVIRIRMKDGKPTGEYEDFVTGFVLSDTEVWGRPVGVAVAKDGALLISEDGNGTIWRVSHP,failed
10,MKPILALLSLLALPVMAAEPTLYGRYENIKVLEIGQTFKAKMDTGALTASLSAKDIELFQRDGDDWVRFRLATKGADDKVYEHKVSRISKIKGRAEGDDEDDEGINPAKRPVVDLELCLGNKKRTVEVNLVDRSHFNFPLLIGAKALREFGAAINPARRYTADEPDC,not failed
11,MKPLEQAINDNKKKKRFNFRMPGAFMILFILTVVAVIATWIIPAGAYSKLSYEPSSQELKIVNPHHQVKKVPGTQKELDRLGVKIKIEQFKSGAINKPVSIPNTYERLKQHPAGLDQITSSMVKGTIEAVDIMVFILVLGGLIGVVQASGSFESGLLALTQKTKGHEFMLIAFVSILMIIGGTLCGIEEEAVAFYPVLVPIFIALGYDSIVSVGAIFLASSVGSTFSTINPFSVVIASNAAGTTFTDGLYWRIGACIIGAIFVISYLFWYCKKIKKDPKSSYSYEDKAAFEKQWSVLHDDGSSEFTLRKKIILTLFVLPFPIMVWGVMTQGWWFPVMASVFLIFTIIIMFIAGTGQYGLGEKGTVDAFVNGASSLVGVSLIIGLARGINLVLNKGMISDTILHFSSSIVQHMSGPLFIIVLLFIFFCLGFIVPSSSGLAVLSMPIFAPLADTVGIPRFVIVTTYQFGQYAMLFLAPTGLVMATLQMLNMRYSHWLRFVWPVVAFVLIFGGGLLITQVLIYS,failed
12,MKPPSAIMETALYADDLDAAEAFYRDVFGLEMVLKLPGQLVFFKCGRQMLLLFDPQESSRADANNPIPRHGAVGQGHFCFYADDKAEVDEWKTRFEALEIPVEHYHRWPNGSYSVYIRDPAGNSVEVGEGKLWGFE,not failed
13,MKPRDINKLIASKIFGYEIKDDNIIKDGRYRLGIPLYSQNIESAWQVVEKLEYDVKVTKTDLKPKYQVHVFVPGGVKMVFAETAPMAICKGALASVDIELQD,not failed
14,MKPRIYVKVKPERLGAVIGPRGEVKAEIMRRTGTVITVDTENSMVIVEPEAEGIPPVNLMKAAEVVKAISLGFPPEKAFRLLEEDQILVVVDLKQVVGDSQNHLKRIKGRIIGEGGRARRTIEEMTDTYINVGEYEVAIIGDYERAMAAKQAIEMLAEGRMHSTVYRHLERIMREIKRRERLKMWAREEL,not failed
15,MKPRVEILMSTYNGEKFLAEQLDSILAQTHQYFVLTVRDDGSKDGTPDILSRYAATDERITYCVQENRGVVGSFYWLLKNSSPLSNYVAFSDQDDVWLPNKLERALDVLSRYDETLPLLYCSRVEYVSAGLGHLDDSPMMVRPVCLNNALIQNVATGCTVVMNKAARDLLLEREWPPQVLMHDWWSYIVVSAFGKVVYDDFVSIKYRQHGGNVIGGTVSFVSDYRSRIINFLSRRRKGVFGCYDQAYSFWLGYKDELKGESRGIVSQFIESKRSFLSRLNYLTSSQRVYRHRFIDDVLVRLLILSNKYLEHHHHHH,failed
16,MKPSHQQQKQASAAKDEKKDIIPLSAEKADGAEGWLNNSTILYTASNPTKTELFPYRIFTGKAKKLYQTDGQIVDVQINAREQMILLQITHSQKTAVVLLNAEGETLYEKDYETYELEAAWNQYDPYQMMVTEFNENWDFHTYQVNAKKDESFLSPVQVPFIHWTSKNTFDYVKEGRDDKTGPLYTFDTASKTEQKLEDNVLFFDSFHQMSFTVKSASGGKGTYQFKTPQSTSPVTAKWPLQAKYTSLAPMEYDYDEAGSLFYTFKQSGDAYKLAAINVASGETKDLVSLREMEPIQISPNGKYALYGFHFEQIILLKSHETKQLIIDQKEMELEHHHHHH,failed
17,MKPSKYSVKAQGHGSSYMPMEVTLSKDKIEDINVDASGETRGVADEVFNRLPKLIVDNQTLNIDAVSGATISSHGVIDGVAQTINEAGGNSEEWKRRAKPRKVLLKKTKNMILMLEHHHHHH,not failed
18,MKQARRHCWRRGIAATLIGGVISRRGTRASIGRDGLQLRFAALPWRTRCVAAAFCRFVKRSTRTPRARQESAVGLATLDIVIVLVYLTGIFVLAQWVSREKAGHSKSAEDYFLASKSLPWWAIGASLIAANISAEQIIGMAGSGYAIGLAIASYEWMAALTLLIVGKFFLPIFLRNGIYTMPQFLEQRYGKWIRTLMAVFWLLLYVFVNLTSILWLGSIAVSQVTGMDQTLALALIGVFALVYQLYGGLKAVALTDIVQVTLLVLGGLLVAALTLARIGDGAGVLEGFQHLWNAHPEHFHMILTKDNPFYKDLPGLSVLLGGLWVMNISYWGFNQYIIQRALAAKNIGEAQKGMVFAAFLKLLMPLVIVVPGIAAVVLAPDLAKPDQAYPTMMQLLPTGMLGLVFAALVAAIVASLASKINSVATIFTLDFYAKFRPQTEQKQLVRVGRIVAAVSVLIGILTARPLLGNFDQGFQFIQEFTGFFTPGVVVIFMLGLFWKRANEAGALTAAIGSVVLSFVLKFAWPELPFMDRIGVVFVAALMLAVLVSLLTPATQARDLIRTNEVAYGTTLSFKIGAAGVIAILIVLYTVFW,failed
19,MKQHILVLEDANQRRTIILDEQQYSIGRHSGTSIQIHSRQASRHHATLMRKTNSKTNEECFWIIDGDLEGNKSQNGVFVNGEKRLIHELKNGDLINFGCSINALEHHHHHH,failed
20,MKQKLLVTLLGLSALGASPVFAANTNVDLAEDAYIYGYSIDEAYKFFYHTAVENNYPLNEFQNRRALADDSYTAHPTINNDTLHLMGWLDVAAEPVIVSVPDMDEGRYWILHTMDMGHYTNAAFSSRTRGTKGGQFMFAAQDWQGEVPASVDEVVRVDSNLVKLMGRIMAVNDEDAKVALNYMDQWNIRTLSEYLGKNGPKPVQRTYPDPKKSTWLERVNFVLCDGSMGNADKQWLDKYQSIGVEPCKTDFTPEQLKLAKVGEKKGMEHLVELAPKMTDARTLLGTRDTLGDAPRDIFAEGTYLGQWGLPPIEASYRKSDFDSIGQKLDGSKHDYVMRFKAPNVSEFWSVTIYGNDNRLMAKNDLNRHSRGDRTMKADKDGYYTIYMSANEKGRADDPNFLPVPEKPFYAIMRFYGADDAIQSGEYQMPEIKVVKLEHHHHHH,not failed

# Reference: a protein production outcome set (Wang et al. 2014)
